Experimental findings from patent publication US11155602B2, “Polypeptides targeting HIV fusion” (priority 2015, dated 2021) are described below.

This experiment concerns NL-Rluc virus. The experiment can be described thus: Combinectin potency assay: antiviral EC50, NL-Rluc virus in MT-2 cells, luciferase readout. Format: cell-based, HIV-1. Particulars: Anti-N17 Adnectin, Table 3. On the procedure:
MT-2 cells, HEK 293T cells and the proviral DNA clone of […] were obtained from the NIH AIDS Research and Reference Reagent Program. MT-2 cells were propagated in RPMI 1640 medium supplemented with 10% heat-inactivated fetal bovine serum (FBS), 10 mM HEPES buffer pH 7.55, and 2 mM L-glutamine. HEK 293T cells were propagated in DMEM media supplemented with 10% heat-inactivated FBS, 10 mM HEPES buffer pH 7.55 and 2 mM L-glutamine. Recombinant NL-Rluc virus, in which a section of the nef gene from the proviral clone of NL4-3 was replaced with the Renilla luciferase gene, was constructed at Bristol-Myers Squibb. The replication-competent virus was harvested 3 days after transfection of HEK 293T cells with the modified pNL-Rluc proviral clone. Transfections were performed using Lipofectamine Plus (Invitrogen, Carlsbad, Calif.), according to manufacturer's instruction. Virus was titered in MT-2 cells using luciferase enzyme activity as a biomarker. The NL-Rluc virus used to infect MT-2 cells a multiplicity of 0.01 for 1 hour before adding to the peptides in 96-well plates. Peptides were serially diluted three-fold and 11 concentrations were plated in triplicate. After 4-5 days of incubation, cells were processed and quantitated for virus growth by the amount of expressed luciferase. Luciferase was quantitated using the Dual Luciferase kit from Promega (Madison, Wis.), with modifications to the manufacturer's protocol. The diluted Passive Lysis solution was pre-mixed with the re-suspended Luciferase Assay Reagent and then re-suspended in STOP & GLO® Substrate (2:1:1 ratio). A total of […] of the mixture was added to each aspirated well on assay plates and luciferase activity was measured immediately on a Wallac TriLux (Perkin-Elmer, Waltham, Mass.). The 50% effective concentration (EC50) was calculated by comparing the amount of luciferase produced in the presence of inhibitory peptide compared to wells where no peptide was added.

In general, EC50 refers to the midpoint of the concentration-response curve.

B1: 119 (protein)
chain: MGVSDVPRDLEVVAATPTSLLISWDAPAVTVGWYHIGYNVEGEPASYQYFRVPGSKSTATISGLKPGVEYMIFVNAVTGSGAREEFSLPISINYRTEGSGSHHHHHH
modifications: Adnectin
Take B1: the EC50 is more than 1000 nM.

B2: 144 (protein)
chain: MGVSDVPRDLEVVAATPTSLLISWQYKVHPYRYYRITYGETGGNSPVQEFTVPSVLSTATISGLKPGVDYTITVYAVTYGVESSPISINYRTEIDKPSQHHHHHH
modifications: Adnectin
Regarding B2, the 50% effective concentration (EC50) was found to be 20 nM.

B3: 158 (protein)
chain: MGVSDVPRDLEVVAATPTSLLISWEYKVHYDRYYRITYGETGGNSPVQEFTVPSVLSTATISGLKPGVDYTITVYAVTYGIQSPPISINYRTEIDKPSQHHHHHH
modifications: Adnectin
As to B3, the EC50 was 85 nM.

B4: 160 (protein)
chain: MGVSDVPRDLEVVAATPTSLLISWEYKVDPYRYYRITYGETGGNSPVQEFTVPSVLSTATISGLKPGVDYTITVYAVTYGVESSPISINYRTEIDKPSQHHHHHH
modifications: Adnectin
As for B4, the EC50 came out at 58 nM.

B5: 156 (protein)
chain: MGVSDVPRDLEVVAATPTSLLISWEYKVNPWRYYRITYGETGGNSPVQEFTVPSVLSTATISGLKPGVDYTITVYAVTYGIESSPISINYRTEIDKPSQHHHHHH
modifications: Adnectin
Turning to B5, the concentration for a half-maximal effect (EC50) amounted to 43 nM.

B6: 154 (protein)
chain: MGVSDVPRDLEVVAATPTSLLISWEYNVNPYRYYRITYGETGGNSPVQEFTVPSVLSTATISGLKPGVDYTITVYAVTYGVNSLPISINYRTEIDKPSQHHHHHH
modifications: Adnectin
As to B6, the EC50 is 8 nM.

B7: 118 (protein)
chain: MGVSDVPRDLEVVAATPTSLLISWKYKVHPYRYYRITYGETGGNSPVQEFTVPSVLSTATISGLKPGVDYTITVYAVTYGVNSLPISINYRTEIDKPSQHHHHHH
modifications: Adnectin
Consider B7, for which the EC50 came to 28 nM.

B8: 155 (protein)
chain: MGVSDVPRDLEVVAATPTSLLISWQYKVHPYRYYRITYGETGGNSPVQEFTVPSVLSTATISGLKPGVDYTITVYAVTHGVHSAPISINYRTEIDKPSQHHHHHH
modifications: Adnectin
Regarding B8, the EC50 came out at 9 nM.

B9: 148 (protein)
chain: MGVSDVPRDLEVVAATPTSLLISWEYNVNPYRYYRITYGETGGNSPVQEFTVPSVLSTATISGLKPGVDYTITVYAVTYGIDSPPISINYRTEIDKPSQHHHHHH
modifications: Adnectin
In the case of B9, the EC50 is 14 nM.

B10: 147 (protein)
chain: MGVSDVPRDLEVVAATPTSLLISWEYKVHPYRYYRITYGETGGNSPVQEFTVPSVLSTATISGLKPGVDYTITVYAVTYGVDSDPISINYRTEIDKPSQHHHHHH
modifications: Adnectin
On to B10, for which the EC50 worked out at 28 nM.

B11: 150 (protein)
chain: MGVSDVPRDLEVVAATPTSLLISWEYNVNPYRYYRITYGETGGNSPVQEFTVPSVLSTATISGLKPGVDYTITVYAVTYGVESSPISINYRTEIDKPSQHHHHHH
modifications: Adnectin
For the molecule B11, the concentration for a half-maximal effect (EC50) was 18 nM.

B12: 151 (protein)
chain: MGVSDVPRDLEVVAATPTSLLISWEYKVHPYRYYRITYGETGGNSPVQEFTVPSVLSTATISGLKPGVDYTITVYAVTYGIDSSPISINYRTEIDKPSQHHHHHH
modifications: Adnectin
For the molecule B12, the concentration giving a half-maximal response (EC50) turned out to be 11 nM.

B13: 157 (protein)
chain: MGVSDVPRDLEVVAATPTSLLISWQYKVHPYRYYRITYGETGGNSPVQEFTVPSVLSTATISGLKPGVDYTITVYAVTYGVNSIPISINYRTEIDKPSQHHHHHH
modifications: Adnectin
Consider B13, for which the concentration for a half-maximal effect (EC50) came to 43 nM.

B14: 145 (protein)
chain: MGVSDVPRDLEVVAATPTSLLISWEYKVHPYRYYRITYGETGGNSPVQEFTVPSVLSTATISGLKPGVDYTITVYAVTYGVNSLPISINYRTEIDKPSQHHHHHH
modifications: Adnectin
Turning to B14, the concentration giving a half-maximal response (EC50) amounted to 11 nM.

B15: 152 (protein)
chain: MGVSDVPRDLEVVAATPTSLLISWEYNVNPYRYYRITYGETGGNSPVQEFTVPSVLSTATISGLKPGVDYTITVYAVTYGVQSDPISINYRTEIDKPSQHHHHHH
modifications: Adnectin
On to B15, for which the concentration for a half-maximal effect (EC50) is 20 nM.

B16: 146 (protein)
chain: MGVSDVPRDLEVVAATPTSLLISWEYKVHPYRYYRITYGETGGNSPVQEFTVPSVLSTATISGLKPGVDYTITVYAVTYGIDSPPISINYRTEIDKPSQHHHHHH
modifications: Adnectin
On to B16, for which the EC50 was found to be 11 nM.

B17: 149 (protein)
chain: MGHHHHHHGGSVSDVPRDLEVVAATPTSLLISWEYKVHPYRYYRITYGETGGNSPVQEFTVPSVLSTATISGLKPGVDYTITVYAVTYGKDSAPISINYRTEID
modifications: Adnectin
Take B17: the EC50 came to 3 nM.

B18: 164 (protein)
chain: MGHHHHHHGGSVSDVPRDLEVVAATPTSLLISWKYQVHAYRYYRITYGETGGNSPVQEFTVPSVLSTATISGLKPGVDYTITVYAVTYGVYSAPISINYRTEID
modifications: Adnectin
On to B18, for which the 50% effective concentration (EC50) is 35 nM.

B19: 167 (protein)
chain: MGHHHHHHGGSVSDVPRDLEVVAATPTSLLISWEYRVNPYRYYRITYGETGGNSPVQEFTVPSVLSTATISGLKPGVDYTITVYAVTYGVQSPPISINYRTEID
modifications: Adnectin
For the molecule B19, the concentration giving a half-maximal response (EC50) was found to be 42 nM.

B20: 161 (protein)
chain: MGHHHHHHGGSVSDVPRDLEVVAATPTSLLISWEYKVHPYRYYRITYGETGGNSPVQEFTVPSVLSSAEISGLKPGVDYTITVYAVTYGDDSAPISINYRTEID
modifications: Adnectin
As for B20, the EC50 is 13 nM.

B21: 166 (protein)
chain: MGHHHHHHGGSVSDVPRDLEVVAATPTSLLISWKYNLHPYRYYRITYGETGGNSPVQEFTVPSVLSTATISGLKPGVDYTITVYAVTYGIISEPISINYRTEID
modifications: Adnectin
For the molecule B21, the EC50 was 50 nM.

B22: 159 (protein)
chain: MGHHHHHHGGSVSDVPRDLEVVAATPTSLLISWEYKVHPYRYYRITYGETGGNSPVQEFTVPSVLSTATISGLKPGVDYTITVYAVTYGDDSAPISIPYRTPGG
modifications: Adnectin
With B22, the EC50 worked out at 23 nM.

B23: 117 (protein)
chain: MGHHHHHHGGSVSDVPRDLEVVAATPTSLLISWEYKVHPYRYYRITYGETGGNSPVQEFTVPSVLSTATISGLKPGVDYTITVYAVTYGDDSAPISINYRTEID
modifications: Adnectin
On to B23, for which the EC50 amounted to 42 nM.

B24: 162 (protein)
chain: MGHHHHHHGGSVSDVPRDLEVVAATPTSLLISWEYKVHPYRYYRITYGETGGNSPVQEFTVPSVLSSAQISGLKPGVDYTITVYAVTYGDDSAPISINYRTEID
modifications: Adnectin
As for B24, the EC50 came to 35 nM.

B25: 153 (protein)
chain: MGHHHHHHGGSVSDVPRDLEVVAATPTSLLISWEYKVHPYRYYRITYGETGGNSPVQEFTVPSVLSTAQISGLKPGVDYTITVYAVTYGDDSAPISINYRTEID
modifications: Adnectin
For B25, the concentration giving a half-maximal response (EC50) is 8 nM.

B26: 169 (protein)
chain: MGHHHHHHGGSVSDVPRDLEVVAATPTSLLISWEYNVNPYRYYRITYGETGGNSPVQEFTVPSVLSTATISGLKPGVDYTITVYAVTRGVDSAPISINYRTEID
modifications: Adnectin
Regarding B26, the EC50 stood at 5 nM.

B27: 168 (protein)
chain: MGHHHHHHGGSVSDVPRDLEVVAATPTSLLISWEYKVNAYRYYRITYGETGGNSPVQEFTVPSVLSTATISGLKPGVDYTITVYAVTYGVLSPPISINYRTEID
modifications: Adnectin
For the molecule B27, the concentration for a half-maximal effect (EC50) came to 42 nM.

B28: 165 (protein)
chain: MGHHHHHHGGSVSDVPRDLEVVAATPTSLLISWEYKVNPYRYYRITYGETGGNSPVQEFTVPSVLSTATISGLKPGVDYTITVYAVTYGVHSSPISINYRTEID
modifications: Adnectin
With B28, the concentration giving a half-maximal response (EC50) was 42 nM.

B29: 163 (protein)
chain: MGHHHHHHGGSVSDVPRYLEVVAATPTSLLISWQYKVHPYRWYRITYGETGGNSPVQEFTVPSVLSTATISGLKPGVDYTITVYAVTYGVNSIPISINYRTEID
modifications: Adnectin
Consider B29, for which the EC50 turned out to be 35 nM.

B30: 170 (protein)
chain: MGHHHHHHGGSVSDVPRDLEVVAATPTSLLISWEYKVSPYRYYRITYGETGGNSPVQEFTVPSVLSTATISGLKPGVDYTITVYAVTFGIRSSPISINYRTEID
modifications: Adnectin
For the molecule B30, the half-maximal effective concentration (EC50) was 5 nM.
